Test results: publication doi:10.1101/2023.07.10.548257 (bioRxiv, 2024)

Assays:
[1] = target: SHP2 N-SH2 domain, wild type (N-SH2-Avi-biotin) (UniProt Q06124); assay: peptide display screen (pTyr-Var Library); conditions: N = 2 independent library transformations and screens, read off a plot
[2] = target: MLH1 pTyr 293 L292P peptide THPFP-pY-LSLEI; assay: peptide display screen (pTyr-Var Library); conditions: N = 2 independent library transformations and screens; parent: est. 2.9; read off a plot
SHP2 N-SH2^T42A domain = target: T1, SHP2 N-SH2^T42A domain (Homo sapiens, UniProt Q06124, T42A); assay: Direct fluorescence polarization binding, N-SH2 T42A; conditions: direct fluorescence polarization with fluorescent peptide
T1 construct: SHP2 SH2 domains were cloned into a His6-SUMO-SH2-Avi construct; His6-SUMO (N, cleaved yes); made in house; host or cells: E. coli C43(DE3), co-expressed with BirA
T1 sequence (Q06124 6-102 T42A limits assumed): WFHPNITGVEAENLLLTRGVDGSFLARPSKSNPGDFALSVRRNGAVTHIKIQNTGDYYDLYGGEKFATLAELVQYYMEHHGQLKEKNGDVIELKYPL
Description: Fluorescence polarization binding assays
SH2 domains were thawed in room temperature water and their absorbance at 280 nm was measured to determine concentration. SH2 domains were serially diluted 15 times in assay buffer (60 mM HEPES pH 7.2, 75 mM KCl, 75 mM NaCl,1 mM EDTA, 0.05% Tween-20), with a 2x starting concentrations generally in the low micromolar range. […] The […]
fluorescent peptide was diluted to 2x the desired concentration and mixed in 1:1 ratio with the different concentrations of SH2 domain (specific fluorescent peptide concentrations can be found in Table S2).
The mixture was transferred to a black 96-well plate and incubated for 15 minutes at room temperature. Parallel and perpendicular measurements were taken using the 485/30 polarization cube on the BioTek Neo2 Plate Reader. Data was analyzed and fitted to a quadratic binding equation to determine the KD for the fluorescent peptide, according to previously established methods (2, 3). […]
P-values comparing affinities for different SH2 domains were calculated using an unpaired Welch’s t-test. […]
Right before starting the plate reader assay, 30 μL SHP2 was added to each well a Supplementary Information - page 4 of 18

[3] = target: MERTK pTyr 872 I871V peptide QADVV-pY-VNTQL; assay: peptide display screen (pTyr-Var Library); conditions: N = 2 independent library transformations and screens; parent: est. 1.0; read off a plot
[4] = target: ALDH2 pTyr 502 E504K peptide FGLQA-pY-TKVKT; assay: peptide display screen (pTyr-Var Library); conditions: N = 2 independent library transformations and screens; parent: est. 1.3; read off a plot

For “ALDH2 pTyr 502 peptide FGLQA-pY-TEVKT E504K”, the enrichment (fselected / finput) ([1]; parent: est. 1.3) was 1.3.

“Sm1; MLH1 pTyr 293 peptide THPFL-pY-LSLEI N-SH2: T42A; MLH1 peptide: L292P” was tested, and the enrichment (fselected / finput) [2] was 8.6.

With CC[C@H](C)[C@H](NC(=O)[C@H](Cc1ccc(OP(=O)(O)O)cc1)NC(=O)[C@H](CC(N)=O)NC(=O)[C@H](CC(C)C)NC(=O)CNC(=O)[C@H](CC(N)=O)NC(=O)[C@H](CCC(=O)O)NC(=O)CCCCCNC(=S)Nc1ccc2c(c1)C(=O)OC21c2ccc(O)cc2Oc2cc(O)ccc21)C(=O)N[C@@H](CC(=O)O)C(=O)N[C@@H](CC(C)C)C(=O)N[C@@H](CC(=O)O)C(=O)N[C@@H](CC(C)C)C(N)=O the “tighter binding of N-SH2^T42A compared to N-SH2^WT” value (SHP2 N-SH2^T42A domain) was 5 fold.

For “Sm1; MERTK pTyr 872 peptide QADVI-pY-VNTQL N-SH2: T42A; MERTK peptide: I871V”, the enrichment (fselected / finput) [3] was 3.8.

With “Sm1; ALDH2 pTyr 502 peptide FGLQA-pY-TEVKT N-SH2: T42A; ALDH2 peptide: E504K” the enrichment (fselected / finput) [4] was 1.8.

Compound “MERTK pTyr 872 peptide QADVI-pY-VNTQL I871T” has an enrichment (fselected / finput) ([1]; parent: est. 1.0) of 1.5.

Work on “MERTK pTyr 872 peptide QADVI-pY-VNTQL I871V” yielded an enrichment (fselected / finput) ([1]; parent: est. 1.0) of 1.
